Experimental data: patent EP1950297A2

Target: GST-fusion protein containing amino acids 327-517 of KIAA0175 (human) (UniProt Q14680)
Assay: cell-based or functional assay

UniProt Q14680, sequence (Q14680 327-517 S391Q): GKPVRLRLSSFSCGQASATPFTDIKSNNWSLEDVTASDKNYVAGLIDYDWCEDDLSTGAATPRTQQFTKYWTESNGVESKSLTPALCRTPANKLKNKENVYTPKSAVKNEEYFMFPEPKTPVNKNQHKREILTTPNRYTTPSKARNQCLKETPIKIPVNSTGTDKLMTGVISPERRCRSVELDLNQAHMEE

increase in phosphorylation by ATM immunoprecipitated from gamma-irradiated cells: 2 to 3 fold
Substance: Ataxia telangiectasia mutated (ATM), immunoprecipitated from cells (from UniProt Q13315 2-3056) (enzyme)
